Data from paper PMC9728937.

Target: FgSnt1^1-744-GST (Fusarium graminearum)
Assay: ITC
Conditions: enzyme

**Q.** Cpk1-HIS was tested. Which Kd did it give?
**A.** 248 nM
